Results as given in patent publication US20140274782A1, “AFFINITY REAGENTS AND METHODS FOR DETECTION, PURIFICATION, AND PROTEOMIC ANALYSIS OF METHYLATED PROTEINS” (The Board of Trustees of the Leland Stanford Junior …, priority 2013, published 2014).

T1: G9a and GLP (Homo sapiens, UniProt Q96KQ7+Q9H9B1)
T1 sequence (Q96KQ7 2-1210 limits assumed): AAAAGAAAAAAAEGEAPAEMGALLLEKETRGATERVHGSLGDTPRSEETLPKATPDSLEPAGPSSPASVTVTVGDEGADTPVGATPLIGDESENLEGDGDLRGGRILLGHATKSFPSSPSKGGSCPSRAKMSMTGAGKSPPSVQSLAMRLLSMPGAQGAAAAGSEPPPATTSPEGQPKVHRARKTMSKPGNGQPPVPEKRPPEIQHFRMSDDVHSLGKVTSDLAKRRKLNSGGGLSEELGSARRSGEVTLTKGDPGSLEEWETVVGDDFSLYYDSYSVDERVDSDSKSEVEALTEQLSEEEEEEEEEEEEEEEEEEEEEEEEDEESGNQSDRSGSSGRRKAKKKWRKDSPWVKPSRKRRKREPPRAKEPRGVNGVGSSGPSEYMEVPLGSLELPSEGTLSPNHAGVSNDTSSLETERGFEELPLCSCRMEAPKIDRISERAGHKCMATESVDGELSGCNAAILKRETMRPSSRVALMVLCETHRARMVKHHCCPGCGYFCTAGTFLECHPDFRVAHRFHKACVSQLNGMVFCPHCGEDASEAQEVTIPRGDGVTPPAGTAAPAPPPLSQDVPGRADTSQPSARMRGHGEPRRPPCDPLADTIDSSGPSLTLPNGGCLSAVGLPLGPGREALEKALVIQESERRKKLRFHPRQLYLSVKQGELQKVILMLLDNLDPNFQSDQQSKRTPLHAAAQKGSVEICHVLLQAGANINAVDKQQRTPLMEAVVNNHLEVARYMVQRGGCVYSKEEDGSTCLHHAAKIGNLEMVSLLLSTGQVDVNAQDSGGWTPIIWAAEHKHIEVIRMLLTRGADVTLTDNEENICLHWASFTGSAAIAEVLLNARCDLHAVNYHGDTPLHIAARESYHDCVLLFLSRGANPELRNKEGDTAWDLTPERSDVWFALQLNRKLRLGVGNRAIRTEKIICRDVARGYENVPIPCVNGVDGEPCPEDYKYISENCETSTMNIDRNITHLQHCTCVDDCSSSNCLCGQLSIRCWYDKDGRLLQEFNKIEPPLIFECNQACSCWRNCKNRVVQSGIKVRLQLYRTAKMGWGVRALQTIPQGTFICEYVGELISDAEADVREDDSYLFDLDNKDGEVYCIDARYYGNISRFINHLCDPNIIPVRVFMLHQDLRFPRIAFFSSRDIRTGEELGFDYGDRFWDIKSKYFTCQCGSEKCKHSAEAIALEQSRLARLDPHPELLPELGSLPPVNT
T1 sequence (Q9H9B1 2-1298 limits assumed): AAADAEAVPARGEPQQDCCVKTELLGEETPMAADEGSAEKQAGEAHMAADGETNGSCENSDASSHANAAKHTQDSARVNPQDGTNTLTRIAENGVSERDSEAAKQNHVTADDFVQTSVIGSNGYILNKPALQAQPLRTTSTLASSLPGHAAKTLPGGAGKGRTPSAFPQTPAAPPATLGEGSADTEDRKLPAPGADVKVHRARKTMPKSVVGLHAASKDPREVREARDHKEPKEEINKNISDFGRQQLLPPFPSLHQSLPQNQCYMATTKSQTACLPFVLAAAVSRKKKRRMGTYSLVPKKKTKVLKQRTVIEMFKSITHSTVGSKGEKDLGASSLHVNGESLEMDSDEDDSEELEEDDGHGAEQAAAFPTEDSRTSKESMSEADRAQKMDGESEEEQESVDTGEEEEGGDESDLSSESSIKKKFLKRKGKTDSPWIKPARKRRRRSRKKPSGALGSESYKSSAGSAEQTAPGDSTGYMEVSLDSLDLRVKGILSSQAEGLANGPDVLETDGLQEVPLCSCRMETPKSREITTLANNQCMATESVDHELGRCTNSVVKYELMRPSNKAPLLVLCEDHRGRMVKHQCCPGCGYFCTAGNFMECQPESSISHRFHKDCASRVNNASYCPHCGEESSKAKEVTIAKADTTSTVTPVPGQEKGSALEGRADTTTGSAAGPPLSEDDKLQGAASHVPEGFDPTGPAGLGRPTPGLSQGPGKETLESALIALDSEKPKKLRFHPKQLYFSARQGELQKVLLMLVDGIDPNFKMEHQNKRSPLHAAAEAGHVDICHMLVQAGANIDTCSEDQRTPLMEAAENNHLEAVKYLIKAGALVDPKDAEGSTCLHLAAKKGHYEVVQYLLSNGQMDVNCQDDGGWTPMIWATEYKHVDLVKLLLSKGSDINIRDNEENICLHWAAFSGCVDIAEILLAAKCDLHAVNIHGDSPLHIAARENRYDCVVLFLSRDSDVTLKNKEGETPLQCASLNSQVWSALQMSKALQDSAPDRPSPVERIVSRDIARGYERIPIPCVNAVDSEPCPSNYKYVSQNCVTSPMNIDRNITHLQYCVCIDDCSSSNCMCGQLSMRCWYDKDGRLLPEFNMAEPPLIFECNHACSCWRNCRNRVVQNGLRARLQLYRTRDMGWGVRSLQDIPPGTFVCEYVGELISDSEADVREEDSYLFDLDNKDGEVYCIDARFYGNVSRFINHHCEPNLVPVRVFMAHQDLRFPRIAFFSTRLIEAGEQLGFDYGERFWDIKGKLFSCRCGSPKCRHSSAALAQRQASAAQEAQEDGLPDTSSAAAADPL


Assays:
3×MBT domain of L3MBTL1 = assay: Triple SILAC pull-down, 3xMBT/3xMBTD355N ratio (cytoplasmic, nuclear and chromatin fractions of 293T cells); assay type: binding, human; conditions: SILAC ratio, pull-down 3xMBT vs 3xMBTD355N; for 3xMBT/D355N UNC Heavy: experiment with UNC0638 in heavy SILAC media; for 3xMBT/D355N UNC Light: experiment with UNC0638 in light SILAC media;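 for all read-outs here: proteins quantified with MaxQuant, requiring at least two unique peptides and quantification in both label directions, normalized to the mean of proteins from a digested loading control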
G9a and GLP = target: T1, G9a and GLP; assay: Triple SILAC pull-down after UNC0638 treatment of 293T cells, DMSO/UNC0638 ratio of protein captured by 3×MBT; assay type: cell-based; design: cells were treated for 24 hours with UNC0638 at 2.5 μM or DMSO vehicle control; endogenous in cells; host or cells: HEK 293T; conditions: for Relative to UNC0638 UNC Heavy / Relative to UNC0638 UNC Light: SILAC ratio DMSO/UNC0638 of protein pulled down with 3xMBT; for Relative to UNC0638 UNC Heavy: UNC0638 in heavy SILAC media; for Relative to UNC0638 UNC Light: UNC0638 in light SILAC media; for Relative to UNC0638 Average: average of UNC Light and UNC Heavy experiments;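 for all read-outs here: mass spectrometry (Q-Exactive) SILAC quantitation, DMSO/UNC0638 ratio computed after subtracting 3×MBTD355N mutant pull-down background, only proteins with at least twofold 3×MBT over mutant signal considered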
Method: For UNC0638 treatments cells were treated for 24 hours with UNC0638 at 2.5 μM or DMSO vehicle control. One experiment treated cells in light media with UNC0638, the other treated cells in heavy media. Both experiments included cells in medium media treated with DMSO for negative control pull-down with 3×MBTD355N.
UNC0638 treatment experiments used a Q-Exactive mass spectrometer (ThermoFisher Scientific). A 25 cm HPLC column with 3 μm Reliasil (Orochem) was used to separate peptides over a 4 hour gradient from 0 to 75% acetonitrile. Ions were generated using a custom nanospray source flowing at 250 nL/minute. Mass spectrometry settings were 70,000 MS1 resolution, data dependent selection of up to 20 precursor ions per cycle, dynamic exclusion of 30 seconds and isolation window of 2 m/z.
For UNC0638 experiments the treated vs. untreated ratio was determined by subtracting the value from 3×MBTD355N prior to dividing values from the light and heavy channels. Only proteins showing a two-fold signal to background ratio (3×MBT/3×MBTD355N) were evaluated as potential G9a/GLP substrates.

Row | Relative to UNC0638 UNC Heavy (G9a and GLP) | Relative to UNC0638 UNC Light (G9a and GLP) | Relative to UNC0638 Average (G9a and GLP) | Molecule | 3xMBT/D355N UNC Heavy (3×MBT domain of L3MBTL1) | 3xMBT/D355N UNC Light (3×MBT domain of L3MBTL1)
1 | 0.35 log base 2 | −0.08 log base 2 | 0.13 log base 2 | PUM1 (protein, UniProt Q14671 2-1186, looked up) Pumilio homolog 1: SVACVLKRKAVLWQDSFSPHLKHHPQEPANPNMPVVLTSGTGSQAQPQPAANQALAAGTHSSPVPGSIGVAGRSQDDAMVDYFFQRQHGEQLGGGGSGGGGYNNSKHRWPTGDNIHAEHQVRSMDELNHDFQALALEGRAMGEQLLPGKKFWETDESSKDGPKGIFLGDQWRDSAWGTSDHSVSQPIMVQRRPGQSFHVNSEVNSVLSPRSESGGLGVSMVEYVLSSSPGDSCLRKGGFGPRDADSDENDKGEKKNKGTFDGDKLGDLKEEGDVMDKTNGLPVQNGIDADVKDFSRTPGNCQNSANEVDLLGPNQNGSEGLAQLTSTNGAKPVEDFSNMESQSVPLDPMEHVGMEPLQFDYSGTQVPVDSAAATVGLFDYNSQQQLFQRPNALAVQQLTAAQQQQYALAAAHQPHIGLAPAAFVPNPYIISAAPPGTDPYTAGLAAAATLGPAVVPHQYYGVTPWGVYPASLFQQQAAAAAAATNSANQQTTPQAQQGQQQVLRGGASQRPLTPNQNQQGQQTDPLVAAAAVNSALAFGQGLAAGMPGYPVLAPAAYYDQTGALVVNAGARNGLGAPVRLVAPAPVIISSSAAQAAVAAAAASANGAAGGLAGTTNGPFRPLGTQQPQPQPQQQPNNNLASSSFYGNNSLNSNSQSSSLFSQGSAQPANTSLGFGSSSSLGATLGSALGGFGTAVANSNTGSGSRRDSLTGSSDLYKRTSSSLTPIGHSFYNGLSFSSSPGPVGMPLPSQGPGHSQTPPPSLSSHGSSSSLNLGGLTNGSGRYISAAPGAEAKYRSASSASSLFSPSSTLFSSSRLRYGMSDVMPSGRSRLLEDFRNNRYPNLQLREIAGHIMEFSQDQHGSRFIQLKLERATPAERQLVFNEILQAAYQLMVDVFGNYVIQKFFEFGSLEQKLALAERIRGHVLSLALQMYGCRVIQKALEFIPSDQQNEMVRELDGHVLKCVKDQNGNHVVQKCIECVQPQSLQFIIDAFKGQVFALSTHPYGCRVIQRILEHCLPDQTLPILEELHQHTEQLVQDQYGNYVIQHVLEHGRPEDKSKIVAEIRGNVLVLSQHKFASNVVEKCVTHASRTERAVLIDEVCTMNDGPHSALYTMMKDQYANYVVQKMIDVAEPGQRKIVMHKIRPHIATLRKYTYGKHILAKLEKYYMKNGVDLGPICGPPNGII | 2.08 log base 2 | 1.66 log base 2
2 | 0.07 log base 2 | 0.20 log base 2 | 0.13 log base 2 | HNRNPC (protein, UniProt P07910 2-306, looked up) Heterogeneous nuclear …: ASNVTNKTDPRSMNSRVFIGNLNTLVVKKSDVEAIFSKYGKIVGCSVHKGFAFVQYVNERNARAAVAGEDGRMIAGQVLDINLAAEPKVNRGKAGVKRSAAEMYGSVTEHPSPSPLLSSSFDLDYDFQRDYYDRMYSYPARVPPPPPIARAVVPSKRQRVSGNTSRRGKSGFNSKSGQRGSSKSGKLKGDDLQAIKKELTQIKQKVDSLLENLEKIEKEQSKQAVEMKNDKSEEEQSSSSVKKDETNVKMESEGGADDSAEEGDLLDDDDNEDRGDDQLELIKDDEKEAEEGEDDRDSANGEDDS | 2.39 log base 2 | 2.62 log base 2
3 | 0.11 log base 2 | 0.14 log base 2 | 0.13 log base 2 | FAM98B (protein, UniProt Q52LJ0 1-433, looked up) Protein FAM98B: MRGPEPGPQPTMEGDVLDTLEALGYKGPLLEEQALTKAAEGGLSSPEFSELCIWLGSQIKSLCNLEESITSAGRDDLESFQLEISGFLKEMACPYSVLISGDIKDRLKKKEDCLKLLLFLSTELQASQILQNKKHKNSQLDKNSEVYQEVQAMFDTLGIPKSTTSDIPHMLNQVESKVKDILSKVQKNHVGKPLLKMDLNSEQAEQLERINDALSCEYECRRRMLMKRLDVTVQSFGWSDRAKVKTDDIARIYQPKRYALSPKTTITMAHLLAAREDLSKIIRTSSGTSREKTACAINKVLMGRVPDRGGRPNEIEPPPPEMPPWQKRQEGGGGRGGWGGGGGGGGRGGGGGGGGRGGWGGGGGGWGGGGGGGGGWGGGGGGGRGGFQGRGDYGGRGGYGGRGGYGGRGYGDPYGGGGGGGGGGGGGGGYRRY | 3.88 log base 2 | 3.18 log base 2
